{"source": "paper PMC3386633", "molecules": {"B1": {"name": "fetuin (natural protein)", "chain": "IPLDPVAGYKEPACDDPDTEQAALAAVDYINKHLPRGYKHTLNQIDSVKVWPRRPTGEVYDIEIDTLETTCHVLDPTPLANCSVRQQTQHAVEGDCDIHVLKQDGQFSVLFTKCDSSPDSAEDVRKLCPDCPLLAPLNDSRVVHAVEVALATFNAESNGSYLQLVEISRAQFVPLPVSVSVEFAVAATDCIAKEVVDPTKCNLLAEKQYGFCKGSVIQKALGGEDVRVTCTLFQTQPVIPQPQPDGAEAEAPSAVPDAAGPTPSAAGPPVASVVVGPSVVAVPLPLHRAHYDLRHTFSGVASVESSSGEAFHVGKTPIVGQPSIPGGPVRLCPGRIRYFKI", "modifications": "O-linked oligosaccharides and sialyl N-acetyllactosamine (Neu5Acα2-3/6Galβ1-4GlcNAc) chains in complex-type N-linked glycans"}}, "key": {"[1]": {"target": "HOL-18, 18 kDa chitotriose-binding lectin from Halichondria okadai (Halichondria okadai)", "assay": "SEC; gel permeation chromatography on Superdex 75 (1.0 x 32 cm), HPLC, 0.5 mL/min, 20 ug purified lectin, native conditions, calibrated with marker proteins"}, "[2]": {"target": "porcine stomach mucin (porcine)", "assay": "SPR; PSM coupled to a CM5 chip (5800 RU), HOL-18 as analyte in HBS buffer, 20 uL/min, 25 °C, BIAcore 3000, 1:1 model, BIAevaluation 3.0; bound lectin removed with 200 mM D-GlcNAc"}, "[3]": {"target": "HOL-18, 18 kDa chitotriose-binding lectin from Halichondria okadai (Halichondria okadai)", "assay": "SDS-PAGE after timed heat treatment; purified lectin in sample buffer (0.2% SDS, with or without 2% 2-mercaptoethanol) heated at 70 °C for 5-60 min; the 36 kDa dimer was retained up to 15 min and dissociated within 20-30 min"}, "[4]": {"target": "HOL-18, 18 kDa chitotriose-binding lectin from Halichondria okadai (Halichondria okadai)"}}}
{"molecule": "HOL-18, 18 kDa chitotriose-binding lectin from Halichondria okadai (natural protein)", "values": [{"measurement": "stoichiometry N", "setting": "[1]", "result": 4}, {"measurement": "Kd", "setting": "[2]", "result": 4.4, "unit": "µM"}, {"measurement": "koff", "setting": "[2]", "result": 0.0061, "unit": "s⁻¹"}, {"measurement": "kon", "setting": "[2]", "result": 1400, "unit": "M⁻¹ s⁻¹"}, {"measurement": "stoichiometry N", "setting": "[3]", "result": 2}]}
{"molecule": "bovine submaxillary mucin (natural protein)", "values": [{"measurement": "minimum inhibitory concentration of the hemagglutination of human type A erythrocytes by HOL-18 (16 HA units)", "setting": "[4]", "result": 125, "unit": "µg/mL"}]}
{"molecule": "porcine stomach mucin (natural protein)", "values": [{"measurement": "minimum inhibitory concentration of the hemagglutination of human type A erythrocytes by HOL-18 (16 HA units)", "setting": "[4]", "result": 10, "unit": "µg/mL"}]}
{"molecule": "B1", "values": [{"measurement": "minimum inhibitory concentration of the hemagglutination of human type A erythrocytes by HOL-18 (16 HA units)", "setting": "[4]", "result": 125, "unit": "µg/mL"}]}
